In general, IC50 refers to the concentration that gives 50% inhibition.

This note sets out measurements from patent publication US20170320956A1 (KYMAB, published 2017).

Where a chain is given by its changes, count along the chain named. Read-outs that look alike come from different tables or passages of the source.

For assay [1], the target named is T1, recombinant human LIGHT-214E, FLAG-tagged extracellular domain (human).
T1 chain: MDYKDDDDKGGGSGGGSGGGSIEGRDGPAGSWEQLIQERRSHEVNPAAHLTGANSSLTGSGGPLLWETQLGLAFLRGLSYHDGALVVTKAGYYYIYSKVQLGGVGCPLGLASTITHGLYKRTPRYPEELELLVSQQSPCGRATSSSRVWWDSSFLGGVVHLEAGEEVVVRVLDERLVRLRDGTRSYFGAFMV
The experiment in a line: cell-based or functional assay.

Assay [2] has as its target T2, mouse LIGHT (mouse, UniProt Q9QYH9 72-239, limits assumed).
T2 construct: also called murine LIGHT
T2 sequence (looked up): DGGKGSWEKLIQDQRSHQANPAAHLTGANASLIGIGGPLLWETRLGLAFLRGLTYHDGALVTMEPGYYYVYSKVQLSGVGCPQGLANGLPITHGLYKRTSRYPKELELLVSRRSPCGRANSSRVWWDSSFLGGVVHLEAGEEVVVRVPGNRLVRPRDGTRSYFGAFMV
The experiment in a line: SPR ProteOn, mAb captured on anti-human IgG.

The target in assay [3] is T1, recombinant human LIGHT-214E, …. In words: HTRF competition, AlexaFluor 647 HVEM-Fc binding to Flag-hLIGHT-214E. The procedure:
(§1) The following methods were carried out with a titration of inhibitor in order to establish the clone potency as measured by IC50 values in the assay. 5 μl of Flag-tagged hLIGHT (in-house) diluted to 2.5 nM final concentration (10 nM working concentration) in HTRF buffer with 5 μl of a titration of antibody purified from hybridoma supernatant diluted in HTRF assay buffer from 300 nM final (1200 nM working concentration) was pre-incubated for 1 hour at room temperature. To wells used to define total binding, 5 μl of LIGHT (10 nM working, 2.5 nM final) and 5 μl of hybridoma maintaining media (HMM,)) were added. To wells used to define non specific binding (receptor only) 10 μl of HMM was added. Total and non specific binding wells were pre-incubated for 1 hr at RT in the same plate as wells containing titration of inhibitor.
(§2) The final IgG4(PE) format lead panel was analysed for neutralization activity as in Example 3. Antibodies were tested for their ability to neutralize LIGHT binding to its receptors, HVEM and LTβR, in an HTRF assay. Antibodies were also tested for their ability to neutralize LIGHT-induced IL-8 release by HT29 colon carcinoma cells.
(§3) HTRF assays were performed as per Example 3, with the following modifications: HVEM-Fc and LTβR-Fc were labelled with AlexaFluor 647, and an anti-Flag K antibody (Cisbio) was used for detection.
(In general: In TR-FRET formats the signal depends on donor and acceptor labels being close together.)

The target is the same in assay [4]. Described as above.
The target is the same in assay [5]. The experiment in a line: HTRF competition, AlexaFluor 647 LTβR-Fc binding to Flag-hLIGHT-214E. The procedure: as §1, §2, §3
In assay [6] the target is T3, rabbit LIGHT protein, FLAG-tagged extracellular domain (rabbit).
T3 chain: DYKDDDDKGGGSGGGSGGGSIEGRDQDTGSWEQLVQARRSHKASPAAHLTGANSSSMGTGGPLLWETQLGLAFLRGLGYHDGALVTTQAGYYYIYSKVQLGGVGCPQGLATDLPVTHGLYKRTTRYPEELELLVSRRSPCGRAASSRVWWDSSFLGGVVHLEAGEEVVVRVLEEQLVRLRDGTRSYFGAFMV
In words: SPR ProteOn, mAb captured on anti-human IgG, 25 C. The protocol: This created a capture surface suitable for capturing human antibodies. The LIGHT antibodies were captured on this anti-human IgG surface, and then human and rabbit LIGHT proteins were passed over captured LIGHT Abs at a concentration of 200 nM. A buffer injection was used to double reference the LIGHT binding sensorgrams. The assay was run at 25° C., using HBS-EP as running buffer.

For assay [7], the target named is T1, recombinant human LIGHT-214E, …. The experiment in a line: HTRF competition, AlexaFluor 647 LTβR-Fc binding to Flag-hLIGHT-214E.
The target of assay [8] is T4, recombinant human LIGHT-214K, FLAG-tagged extracellular domain (human).
T4 construct: the IgK leader peptide is marked only by underlining (not visible here), so its residues were not removed; Trimer
T4 chain: T1 chain with E166K
The experiment in a line: SPR ProteOn, mAb captured on anti-human IgG, 37 C.

The target of assay [9] is T1, recombinant human LIGHT-214E, …. The experiment in a line: cell-based or functional assay.
In assay [10] the target is T4, recombinant human LIGHT-214K, …. In words: SPR ProteOn, mAb captured on anti-human IgG, 25 C, apparent affinity.
The target of assay [11] is T5, recombinant cynomolgus monkey LIGHT, FLAG-tagged extracellular domain (cynomolgus (Macaca fascicularis), UniProt E9NVF7 59-240).
T5 construct: extracellular domain; also called cynomolgus LIGHT; cyno LIGHT
The experiment in a line: SPR ProteOn, mAb captured on anti-human IgG, 37 C.

Assay [12] has as its target T1, recombinant human LIGHT-214E, …. The experiment in a line: SPR ProteOn, mAb captured on anti-human IgG, 37 C.
Assay [13] concerns the target T4, recombinant human LIGHT-214K, …. The experiment in a line: SPR ProteOn, mAb captured on anti-mouse IgG, LIGHT 256 nM, 25 C, apparent affinity. The protocol:
(§4) SPR analysis was carried out using the ProteOn™ XPR36 Array System (BioRad). Anti-mouse IgG (GE Healthcare BR-1008-38) was immobilised on a GLC biosensor surface using amine coupling, the surface was then blocked using 1M ethanolamine. […] Apparent affinities for the LIGHT-antibody interaction were determined using the 1:1 model inherent to the ProteOn XPR36 analysis software. The assay was run using HBS-EP (Teknova) as running buffer and carried out at 25° C.

Assay [14] deals with T5, recombinant cynomolgus monkey LIGHT, …. The description is as above. The protocol:
as §4
Target sequence in this assay (E9NVF7 entry or part of it): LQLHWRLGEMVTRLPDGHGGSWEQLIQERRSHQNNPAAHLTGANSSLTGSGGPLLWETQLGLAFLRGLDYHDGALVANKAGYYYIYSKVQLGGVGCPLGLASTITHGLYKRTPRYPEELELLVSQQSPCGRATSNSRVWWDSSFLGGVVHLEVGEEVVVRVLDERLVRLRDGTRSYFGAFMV

Assay [15] deals with human LIGHT-214E, full length, expressed on the surface of CHO-S cells (human, UniProt O43557 1-240). The experiment in a line: FACS, CHO-S cells expressing hLIGHT-214E. On the technique in general: A flow cytometer gives signals particle by particle.
The target in assay [16] is T1, recombinant human LIGHT-214E, …. In words: HTRF competition, HVEM-Fc binding to Flag-hLIGHT-214E. The protocol:
as §1

The target is the same in assay [17]. The experiment in a line: HTRF competition, LTβR-Fc binding to Flag-hLIGHT-214E. The procedure: as §1
LIGHT receptor was diluted in HTRF assay buffer and added to all wells, 5 μl/well of HVEM-Fc or LTβR-Fc (R&D systems) at 1.2 nM for HVEM (0.3 nM final) and 0.4 nM for LTβR (0.1 nM final).

The target in assay [18] is T2, mouse LIGHT. The experiment in a line: SPR ProteOn, mAb captured on anti-mouse IgG.
Assay [19] has as its target T1, recombinant human LIGHT-214E, …. The experiment in a line: SPR ProteOn, mAb captured on anti-mouse IgG, LIGHT 256 nM, 25 C, apparent affinity. The procedure: as §4

B1: 01C02 in human IgG4(PE) format (antibody, V domains shown)
VH: QVQLVQSGAEVQKPGASVMVSCKASGYTFTYYGISWVRQAPGQGLEWMGWISANSGNTNYAQKFQGRVTMTTDTSTNTAYMELRSLRTDDTAVYYCAKGGVAVLEYWGQGTLVTVSS
VL: DIQLTQSPSFLSASVGDRVTITCWASQGISSYLAWYQQKPGKAPNLLIYVASTLQSGVPSRFSGSGSGTEFTLTISSLQPEDFATYYCQQLKIYPLTFGGGTKVEIK
B1: the “HT29 IL-8 release, IC50” value in assay [1] is 0.261 nM; in assay [9], 0.26 nM. For the same molecule, the binding result with mouse LIGHT [2] is reported as “no binding”; in [6], “binds”. The IC50 in [3] amounted to 1.64 nM; in assay [4] it was 1.64 nM; in [5] it was 3.48 nM; in assay [7], 3.48 nM. The Kd in assay [8] was 0.822 nM.

B2: 01C06 in human IgG4(PE) format (antibody, V domains shown)
VH: QVQLVESGGGLVKPGGSLRLSCAASGFTFSDYYMNWIRQAPGKGLEWIADISSRDNTIYYADSVKGRFTISRDNAKNSLYLQMNSLRAEDTAVYYCARERGFGDYFGMDVWGQGTTVTVSS
VL: AIQLTQSPSSLSASVGDRVTIACRASQDISSALAWFRQTPGKTPKLLIYDASSLESGVPSRFLGSGSGTDFTLTISSLQPEDFAIYYCQQFNTYPLTFGGGTKVEIK
On to B2, for which the binding result in assay [10] is “binds”; with mouse LIGHT [2], “no binding”. Besides, the “HT29 IL-8 release, IC50” value in assay [1] is 0.556 nM. The IC50 in [4] is 0.698 nM; in assay [7], 2.07 nM.

B3: 13H04 in human IgG4(PE) format (antibody, V domains shown)
VH: QVQLVQSGAEVKKPGASVKVSCKASGYTFTSYGISWVRQAPGQGLEWMGWISAHNANTNYAQKLQGRVTMTTDTSTSTAYMELRSLRSDDTAMYYCARLYRNWFDPWGQGTLVTVSS
VL: QSALTQPASVSGSPGQSITISCTGTSSDVGGYNYVSWYQQHPGKAPKLMIYDVSKRPSGVSNRFSGSKSGNTASLTISGLQAEDEADYYCCSYAGSSTLLFGGGTKLTVL
B3: the IC50 in assay [3] was determined as 1.29 nM; in assay [5], 3.15 nM. Also, the binding result in assay [6] was “binds”. For the same molecule, the Kd came to 0.401 nM in assay [8], 0.207 nM in assay [11] and 0.293 nM in assay [12]. The “HT29 IL-8 release, IC50” value in [9] was 1.22 nM.

B4: 18E04 (purified from hybridoma supernatant, mouse IgG) (antibody, V domains shown)
VH: QVLLVQSGAEVKKPGASVKVSCKASGYTFTHFDINWVRQATGQGLEWMGWMNPDSDNTDYAQEFQGRVTMTRDTSISTAYMELSSLRSEDTAVYYCARGGTTLDYWGQGTLVTVSS
VL: SYELTQPPSVSVSPGQTARITCSGDALPKKYAYWYQQKSGQAPVLVIYEDSKRPSGIPERFSGSSSGTMATLTISGAQVEDEADYYCYSTDSSDNHVIFGGGTKLTVL
notes: Murine C / human V chimeric IgG, lambda, purified from hybridoma supernatant
Consider B4, for which the Kd in assay [13] worked out at 2.33 nM; in [14] it was 3.11 nM. The “HT29 IL-8 release, IC50” value in assay [1] is 0.327 nM. Further, the binding result is “binds” in [15] and “no binding” with mouse LIGHT [18]. In addition, the IC50 in [16] was determined as 1.32 nM; in assay [17], 1.64 nM.

B5: 98C07 in human IgG4(PE) format (antibody, V domains shown)
VH: QVQLVESGGGLVKPGGSLRLSCAASGFTFSDYYMSWIRQAPGKGLEWVSYISRSSFIYYSESVKGRFTISRDNAKNSLYLQMNSLRAEDTAVYYCARWELSPFDYWGQGTLVTVSS
VL: DIQMTQSPSSLSASVGDRVTITCRASQGISNYLAWFQQKPGKAPKSLIYAASSLQSGVPSKFSGSGSGTDFTLTISSLQPEDFATYFCQQYNTYPFTFGPGTKVDIK
For the molecule B5, the half-inhibitory concentration (IC50) was 0.82 nM in assay [3] and 1.62 nM in [5]. Further, the binding result in assay [6] is “binds”. Moreover, the Kd in assay [11] is 0.202 nM; in [12], 0.018 nM. The “HT29 IL-8 release, IC50” value in assay [9] came out at 0.18 nM.

B6: 98C07 (purified from hybridoma supernatant, mouse IgG) (antibody, V domains shown)
VH: B5 VH
VL: B5 VL
notes: Murine C / human V chimeric IgG, kappa, purified from hybridoma supernatant
Consider B6, for which the figures for the Kd in assay [13], in assay [14] and in assay [19] were 296 nM, 0.257 nM and 0.045 nM, respectively. In assay [1], the “HT29 IL-8 release, IC50” value came to 0.166 nM. Further, the figures for the binding result (in assay [15]; with mouse LIGHT [18]) were “binds” and “no binding”, respectively. Moreover, the IC50 in assay [16] stood at 1.08 nM; in [17], 2.06 nM.
